Source: the DeepSol protein solubility set

Experiment: soluble on expression in E. coli; label from the status in PepcDB or PDB records

Row | Sequence | soluble on expression in E. coli
1 | MGNNVVVLGTQWGDEGKGKIVDLLTERAKYVVRYQGGHNAGHTLVINGEKTVLHLIPSGILRENVTSIIGNGVVLSPAALMKEMKELEDRGIPVRERLLLSEACPLILDYHVALDNAREKARGAKAIGTTGRGIGPAYEDKVARRGLRVGDLFDKETFAEKLKEVMEYHNFQLVNYYKAEAVDYQKVLDDTMAVADILTSMVVDVSDLLDQARQRGDFVMFEGAQGTLLDIDHGTYPYVTSSNTTAGGVATGSGLGPRYVDYVLGILKAYSTRVGAGPFPTELFDETGEFLCKQGNEFGATTGRRRRTGWLDTVAVRRAVQLNSLSGFCLTKLDVLDGLKEVKLCVAYRMPDGREVTTTPLAADDWKGVEPIYETMPGWSESTFGVKDRSGLPQAALNYIKRIEELTGVPIDIISTGPDRTETMILRDPFDA | soluble
2 | MSKRPVIESEKPAWHDEDDDNMVVAVPKKVKMTMRVELKRTTDEEHGELDSKEYVGRLQEAFRKRHGGTPKWAKAAAGDEEEGSLLKTAAGYLAKDVNLPKTTIHTTLIKDFNIGHRYTRGITVVKFHKTRPVLIVADQGGNVQLFKVSREVKKDRFLQSANFSKFPIDSLEIADKGHSVICSSSRKEYLMQYNMETREVTQLKPPNTVPKQGIRLFAISHDSQFLAIAGHNSHIYVLHATSMEHITTISLPANASEIKFFPSHSREIWIICETGQIVIANIGLPGTKSSQHTFTDDGAVHGTTLAISQHGDYFATGSDTGIVNVYSGNDCRNSTNPRPLFNVSNLVTAVSSIAFNSDAQLMAICSNVKDNHLRLVHVASQTTFKNFPERNGKVTHARCVEFSPNGGYMAVGNDDGRLHVFEIHHFTDY | not soluble
3 | MLSSKFPLLVATDLSPTGKVVLEKAFKLAKRYHKPLFILHVSETTLFAPKIIELTQIEANLCKLLEPFYARYPEVKATLLCRQGGIEESIISAIKETQASLLLIGTSGEDNLLREFFLGSHCRKIIRSSTIPVLVVKNEEESDYSKIFIPTDFSPSSQKMANLTLHLFPHAYISLFHVILKPFEQRLGMYGLDKDEILRYHKDIDNQSASEADHFIEKLKLPSGKHRIKLLMETGVFSAKLCLQKVKEAQSDLIALNTTGNISFFSMDILNQSPKDVLIFKTDSE | not soluble
4 | MAGAGHKEDKSVTKKLIKKESKSDITIYFKQREESEDNNANPINISRSSEKDRVIMLVNGSNGSKKNLASELNVRRSVAQTGAGGVTQPKPLLNDINTKSHAFIQSRLEKMRKGL | not soluble
5 | TASIGAAAILGAPIMHDFCHISLSDLMTPWEVIEKRLRLAAEADFVICLYNPRSKGRSEHLSKAFKIMGEFKGGDTPVGVVKDVGREKEEKFVCTFENMDFEKVDMTTMVIIGNKSTY | not soluble
6 | MGSDKIHHHHHHEQEDKVSGEKTLAVVSASSDDRPSTRGIINDNTYALGVFRTTANTYAPLYNVKHIYSGGEWGADDVIKVDYRNASFFAYYPYHTATGNYAGLAGGTTLTLQAQLFNAGEDICYGAGEASGGGPVSVYNPFVEFLNMKHAYARLRLTLTRGEKFDKTKKCNIQNITFKSNNANFYLTRSLDIASTAGATGGSAVAAGYVHNPNVNIATGKSVTYEYMFPPQPLDGSKLTILVTVDGVTRSCDISTLGSSLDSGKYYGVSLTFTDVGIILSSAVVTVNNFGGQGNTQVDTEL | not soluble
7 | MVQLSLSQVHQDQIYRHGERCYPEECCGLLLGKILIGENGHRHWQVVEVQPTENCWGDVEEFQQNNHQGNKLHYFAIDPKVLLSAQKDCRQKGLSIIGIFHSHPHGQPIPSEFDRAIAWPEYIYLIASGLEHHHHHH | not soluble
8 | MSLSLSLAEARRLALAAQGFDGRRTRRSVQRRHLREMLARLGLLQIDSVNALVRSHYLPLFSRLGPYSMTLLDEAAWSVGRHRQLFEYWGHEASLLPLEHYPLMRWRMRQAADGQGIYQQLARFGREQQPLIRQVLQAVREQGALGAGSLSTRQERAGPWWDWSAEKHALEWLFAAGELTVAGRRGFERLYDLPERVFPAELLARPELSEAQAQRELLRMAASALGVATEKDLRDYYRLSPAQSRARLAELVEAGELLPVRVEGWSQPAYCPGEPQVPRRLGASALLSPFDSLVWERARAERLFDFRYRLEIYTPKEKRVYGYYVLPFLYNGRLVGRVDLRAERARERLVVHALHAEANGMDDAALHELAEQLRSMAAWLGLATVAIEGRGELAVRLRGVLLLEHHHHHH | not soluble
9 | MSLKKSFLLLPLSLVVLSACTSNFPAPISDADGNFSPSVIQSVNGSNVGGAWQPEIQKNSLPTTGNMVTPQQNFQPINQQPTMPTAPAQPAFQPSPKTVVSAPTVQTKTVTKTVADCVDGQHINIPRNPNTNAPDYSKISKGSYKGNTYKVNKGDTMFLIAYLAGIDVKELAALNNLSEPYNLSLGQVLKISNCDIKTVTTTVSVKQPAVTASTATPVKPAVTYTPGANGTQIGSDGTIIGPIKSEAGTSPSVPVATSSTQVTSSVNNANSTPINSNVVAPIASNVVWQWPTSGNIIQGFSSTDGGNKGIDISGSRGQAVKAAAAGRIVYAGNALRGYGNLIIIKHNDDFLSAYAHNDKILVADQQEVKAGQDIAKMGSSGTNTVKLHFEIRYKGKSVDPVRYLPRHEGHHHHHH | not soluble
10 | TPPSGSGNWESLFNGLYRLQQRQRRKRKELTNLIRRFRNGAESLPDAVVVFRAEGNIVWCNRLAQHLLGFHWPEDSGQPISNLIRTPDFIKYLNKKDFSEPLEMRSPLNVERMLELRIVPYTEGEHLMVVRD | not soluble
11 | MNVAAILLAAGKSQRMGLCKQLLQLADRPAVAHCLDTLTAVGLQEIIVVVSPGGDEVAAAVSRYPVVVAVNESDSCDMADSARTGLARLISDPTGVLVALADHPLVRPDTVRALVNRHGEEPDAILIPVHDGAKGHPTLFPAAILQEIGQVATLRDIIGRHRDKVRLVPVADEGVVMDMDVWEDYLAMAERLNPPGLEHHHHHH | soluble
12 | GNQRKVSVVGAQSTMDVKDIKMPAASLSSAISGRIAGVVAVQRSGEPGHDESDIWIRGLSSLLGQSSSPLVLVDGVERSFNNIDPEDIESFTVLKDASATAVYGVRGANGVVIVKTKPGKVG | soluble
13 | MSLSKENIRKTSKIETKSKEFSRQNMIDLFDLYFYEDCPYQDESAELLRLVGRGKMRIVSRENGTSACAGDLAGYYEKKGLKVLNYFRDGENFKPGDAIFEAEGDIKLIFRFWRVSQTFLTMMCAIATKTASMVSEARRTNPDIIIATSRKTHPGARIFELKAVRAGGGDIHRNSLSDSIQISQNHLEVAGELGKLRAMKKIEIEPRSREEAFKYAEMSDIMLLDHLSPEELRELGPELKELNPELELAVGGIEAKRIPEYAPFVDIIVISAPYYANPLDFTTKIEREGHHHHHH | soluble
14 | MGSDKIHHHHHHMDLFSASFNPHQIAPLAERMRPRTLDDYIGQSEIIGKGKLLRRAIEADRVTSLILYGPPGTGKTSLAQVIANTTSSGFVRINAVAAGVKEIREIIQTATEQLHLYGKKTLVFCDEVHRFNKGQQDALLPAVENGTITFIGATTENPFFELNSALLSRSTLFRLQPLTAEDIRSGLAQALADKERGLGNYSVSIDPEAWEHWLNFANGDLRRALNALELAVLTTPPEQGVRRITLSVAEESIQQRAMRFDKNGDNHYDIVSAFIKSMRGSDPDAALYWLAVLLESGEDPRFIVRRIIVHASEDVGLADPMVMLQAHAAANALEWVGLPEARIPIAQAVLAIATAPKSNSTIMAIDRATGYVRSHPTGQVPAHLRDANYPGAKKMGHGKNYLYPHDYPGHWVEQGYLPQEVQGENFFTPSGTGQDRDNRGKPQVIPPSE | not soluble
15 | MAKRGRKRKVSKDEENTTPEPEMKKKADEKVVELDEKDWMPSAALEFFENENFKEIVENLSHLDNSVTLVGPFRKLRGESDADGTDLIMLDREMTDLPEMQTFMKCSHGRYAFWRDKPNDKKPVIVFMDLKTIPDLSVVGNEIRHAILDFCTRCSKCIDCSAKSKAANSKIQSFFTPSKISSEVKEVLKHREKTTVRGISGPGMLIDVVPTGNSGKKNKKNERTGYRDLSKNAYCINIEHLVRSLRLCQTKEQEEKVLDFVYGLMNEINICNDEGDFGNGLELGHILFLANMKAVADPMMITLHIAYKNLHRPDFAKILDLTLSLRDQQEEAT | soluble
16 | MAHHHHHHMPCNCRQGTGTHDHLQDGFARGGMFGVGSPLNAQVDVDLLQLWNSRNSVSEAARIFDPAKGDNDQPICSDADPELLLLIPLKEVCRIRSVSILGTNDDFAPSQVKLFCNPTGVVGFDSVRRLQHQEEIQLAQVSADDRIAYRLNPAKFSSAGCMGMLFEHSFGDDETHILRIELFGESTGRPVYQQTATNVVYEAMANPTDHNVGEELKKTFTIF | soluble
17 | MGSDKIHHHHHHMQLRALMYFDELVRTNSMRAAAENLNVAPTAVSRQIENLEYYFGSPLVERSSRGVKLTAAGELLAARAGKTLRELDHVHRLIDDLKGLQRGRVTVYANGATVANLLAPVLAQFSLKYPKLRFEVHITSARQAMEALGAAEADLVVSLFAPKLSGVKVRSRTRISYDVIFPAGHALAAQPEVSLKELAGMPLALPDKSFAARQAFDTLFADAGIELDPVFITSSLEMLKELVLGNAAATLLPALSVAREIRSGQMVAVPLAGKKGIHTQIDLCVAPDRQLSFAASKLADFIERFMREATAG | not soluble
18 | MGSDKIHHHHHHMSQRLQALYGLKWNPFSPELPLEALYVPPRVENFCWRIENALVREGGFAMIHGEPGTGKSVVMRVLAEKLERLTDLTVVSINHPQSNLADFYREMGDIFGLELRPHNRWGGFRSLRDRWMSHLQSTRRRPILLIDEAQEMSPGVLNELRLMASARFDSQPLLCVVLAGDTRLTDKLRRDELLPLGSRIRSRLGTEKASADDLLACLDHLLASAGAPQLMTPPLRHTLCEHALGNYRVLTTLANELLTTAAQRELSELDEKLYFEVFAPSTQSSRRTPARQPNGAR | not soluble
19 | MSLDDGTGLFTIGQLARRTGLSVRTIRYWSDEGALPPVTRSSGGYRLYDAGSVARLELIRTLRELGLGLDDVREVLAGETTVAEVAATHVTALDAQIRALKVTRAVLSTVARRGSTAEEMTLMNKLARLSAAERRRILEEFADEMFRGLDTADPVIRERMRNTAVDLPDEPTPEQVDAWVELVELLQDPEFRAQMRAAAEFNAADRGHDSPAGASLWFVRRLVQLAADARQRGIAPEAPEAEEVLRELLGEADGAADRAAVLERLEATSNDRVARYRELLAVVKGGGPLPAHREEFGWVVAALRAREGHHHHHH | soluble
20 | MNKEQLQQMRQAPGFVGALDQSGGSTPKALKAYGIQPDAYQSEEEMFDLIHQMRTRMITSPAFATGKIIGVILFERTMRGKIEGMPTADFLWEKRHIVPFLKVDKGLQDEANGVQLMKPFPELGKLCEEAVGYHVFGTKMRSVIKQANEQGIRDIVEQQFQWGKEILSHGLVPILEPEVDIHCPEKAKAEEILKRELLAQLDKMTEPVMLKITIPTVDNFYKEIIEHPMMLRVVALSGGYSREQANELLSRNHGVIASFSRALVEGLSARQTDAEFNAMLEASIEDVYQASIK | soluble
21 | MSLKGTYEKSIHIVKKNKYKTIDVVFGNLKEGIPLAEKSINHGTRIIISRGGTYNMLKATYNIPIVEIKVDAYDIIKSYKEVKNSNEPFGIIGFNNVIYGFDIIEEILNKKITMIEIEKEEEIYDAIEKYRKKGINTYIGDTTVAHIVKRLNCKGILIESREENILRAIQQAEQILEATKDEQKREGHHHHHH | not soluble
22 | AVTKLVLVRHGESQWNKENRFTGWYDVDLSEKGVSEAKAAGKLLKEEGYSFDFAYTSVLKRAIHTLWNVLDELDQAWLPVEKSWKLNERHYGALQGLNKAETAEKYGDEQVKQWRRGFAVTPPELTKDDERYPGHDPRYAKLSEKELPLTESLALTIDRVIPYWNETILPRMKSGERVIIAAHGNSLRALVKYLDNMSEEEILELNIPTGVPLVYEFDENFKPLKRYYLGNADEIAAKAAAVANQGKAK | soluble
